Laboratory results: patent publication US20150247135A1 (LIGACEPT, published 2015)

What was measured:
[1] = molecular target: T1, E4-Fc (amino acids 1-497 of ErbB4 joined to the IgG2Fc portion) (UniProt Q15303 26-522; P01859 104-326 = IgG part); test: trap coated on 96 well plate, varying HRG1β, detection antibody; Std Error Kd 3.128 nM
T1 construct: range 1-497;domain: IgG2Fc; Control trap; The 1-497 range counts on mature ErbB4 without the signal peptide; also called ErbB4-IgGFc
Experimental: (§1) Purified trap molecules were coated on 96 well plates and incubated with either TGFα or HRG1β. Then detection antibodies against TGFα or HRG1β were used to measure the affinity (Kd) and amount of bound ligand (Bmax).
(§2) Traps were coated on 96 well plates and incubated with varying concentrations of either TGFα or HRG1β. Detection antibodies against TGFα or HRG1β were used to measure the affinity (Kd) and amount of bound ligand (Bmax).

[2] = molecular target: T1, E4-Fc (amino acids 1-497 of ErbB4 …); test: trap coated on 96 well plate, varying HRG1β, detection antibody; Std Error Kd 2.92 nM
Experimental: as §1, §2

T1 sequence (Q15303 other isoform, or with tags, fused parts or gaps limits assumed): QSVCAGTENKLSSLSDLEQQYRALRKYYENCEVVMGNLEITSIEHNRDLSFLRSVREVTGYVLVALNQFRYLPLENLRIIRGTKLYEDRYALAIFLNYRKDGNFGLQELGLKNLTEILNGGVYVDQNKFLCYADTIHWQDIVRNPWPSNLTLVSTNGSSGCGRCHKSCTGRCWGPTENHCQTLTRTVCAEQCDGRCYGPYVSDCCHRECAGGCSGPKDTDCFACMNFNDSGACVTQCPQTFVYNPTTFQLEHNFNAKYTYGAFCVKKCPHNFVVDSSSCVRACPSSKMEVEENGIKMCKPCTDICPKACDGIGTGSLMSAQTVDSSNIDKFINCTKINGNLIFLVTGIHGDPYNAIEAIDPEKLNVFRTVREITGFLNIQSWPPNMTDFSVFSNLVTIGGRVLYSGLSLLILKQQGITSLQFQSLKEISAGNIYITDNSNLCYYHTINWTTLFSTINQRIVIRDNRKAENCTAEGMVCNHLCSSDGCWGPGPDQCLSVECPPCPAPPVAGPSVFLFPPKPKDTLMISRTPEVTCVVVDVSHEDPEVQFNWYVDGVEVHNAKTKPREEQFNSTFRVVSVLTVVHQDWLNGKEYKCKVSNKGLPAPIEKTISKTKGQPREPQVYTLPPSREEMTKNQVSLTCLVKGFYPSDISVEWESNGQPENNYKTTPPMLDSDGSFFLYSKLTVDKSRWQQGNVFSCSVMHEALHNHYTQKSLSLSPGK

B1: HRG1β (ligand, UniProt Q02297-6 177-241, looked up)
chain: SHLVKCAEKEKTFCVNGGECFMVKDLSNPSRYLCKCPNEFTGDRCQNYVMASFYKHLGIEFMEAE
notes: Soluble ligand incubated with the coated traps; also called heregulin
Kd [1]: 14.5 nM | Kd [2]: 21.2 nM
